Assay results: paper PMC6089609 (Methods in cell biology, 2015)

Molecular target: the molecule itself
Experiment: negative stain and cryo-electron microscopy of assemblies on liposomes

B1: EndophilinA1 (natural protein, human, UniProt Q99962 1-352, looked up)
chain: MSVAGLKKQFHKATQKVSEKVGGAEGTKLDDDFKEMERKVDVTSRAVMEIMTKTIEYLQPNPASRAKLSMINTMSKIRGQEKGPGYPQAEALLAEAMLKFGRELGDDCNFGPALGEVGEAMRELSEVKDSLDIEVKQNFIDPLQNLHDKDLREIQHHLKKLEGRRLDFDYKKKRQGKIPDEELRQALEKFDESKEIAESSMFNLLEMDIEQVSQLSALVQAQLEYHKQAVQILQQVTVRLEERIRQASSQPRREYQPKPRMSLEFPTGDSTQPNGGLSHTGTPKPSGVQMDQPCCRALYDFEPENEGELGFKEGDIITLTNQIDENWYEGMLHGHSGFFPINYVEILVALPH
binding result: binds
